Columns and labels:
p73 [1] = target: T1, p73 (Homo sapiens, UniProt O15350); assay: Co-immunoprecipitation with p73 in transfected COS7 cells; assay type: binding; conditions: COS7, co-immunoprecipitation (FIG. 10, FIG. 28)
T1 construct: expressed in transfected cells; host or cells: COS7
T1 sequence (O15350 1-636): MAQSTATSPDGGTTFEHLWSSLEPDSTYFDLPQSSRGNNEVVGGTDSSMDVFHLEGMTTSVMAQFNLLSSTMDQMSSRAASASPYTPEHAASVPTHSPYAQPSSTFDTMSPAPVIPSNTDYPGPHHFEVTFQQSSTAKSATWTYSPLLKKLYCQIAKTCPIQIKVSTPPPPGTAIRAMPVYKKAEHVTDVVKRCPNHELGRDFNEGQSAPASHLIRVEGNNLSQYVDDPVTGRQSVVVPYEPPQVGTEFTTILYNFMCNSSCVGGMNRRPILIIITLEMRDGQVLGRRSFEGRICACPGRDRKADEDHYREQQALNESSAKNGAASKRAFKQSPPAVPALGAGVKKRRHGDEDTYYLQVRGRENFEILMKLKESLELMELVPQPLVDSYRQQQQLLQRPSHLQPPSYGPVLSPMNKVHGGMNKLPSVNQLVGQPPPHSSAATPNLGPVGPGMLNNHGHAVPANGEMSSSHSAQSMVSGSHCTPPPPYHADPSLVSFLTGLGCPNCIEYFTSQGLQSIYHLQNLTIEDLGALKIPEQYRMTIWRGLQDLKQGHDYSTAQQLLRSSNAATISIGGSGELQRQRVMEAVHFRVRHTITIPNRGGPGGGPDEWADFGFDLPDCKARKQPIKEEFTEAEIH
Experimental: (§1) Whole cell lysates were centrifuged at 15000 rpm for 15 minutes to remove cell debris. The obtained supernatant was pretreated at 4° C. for 30 minutes with protein G-Sepharose (50% slurry, 30 μL; Amersham Pharmacia Biotech). After centrifugation, the supernatant was incubated at 4° C. for 2 hours with an anti-HA polyclonal (Medical and Biological Laboratories) or anti-FLAG monoclonal antibody. The immunocomplexes were precipitated at 4° C. for 30 minutes with protein G-Sepharose beads. After collection by brief centrifugation, the immunoprecipitates were washed three times with lysis buffer, then suspended in 30 μL of 2×Laemmli SDS sample buffer, and treated at 100° C. for 5 minutes. The supernatant was loaded onto 10% SDS-PAGE and analyzed by immunoblot as described above.
(§2) To investigate whether IKK-α interacted with p73 in cultured mammal cells, whole cell lysates were prepared from transfected COS7 cells, then immunoprecipitated with an anti-FLAG or anti-HA antibody, and analyzed by immunoblot using an anti-p73 or anti-FLAG antibody, respectively. […] Likewise, HA-p73β was co-immunoprecipitated with FLAG-IKK-α (data not shown). […] To identify determinants of p73 participating in the interaction with IKK-α, several deletion mutants of p73 fused to GST were prepared and examined for their abilities to bind to FLAG-IKK-α by in-vitro pull-down assay. These mutants were designed on the basis of the functional domains of p73 including transactivation, DNA-binding, oligomerization, and SAM domains (FIG. 12).

p73 [2] = target: T2, p73 (Homo sapiens, UniProt O15350); assay: as above; assay type: binding; conditions: COS7, data not shown
T2 construct: expressed in transfected cells; host or cells: COS7
T2 sequence (O15350 1-499 isoform O15350-2): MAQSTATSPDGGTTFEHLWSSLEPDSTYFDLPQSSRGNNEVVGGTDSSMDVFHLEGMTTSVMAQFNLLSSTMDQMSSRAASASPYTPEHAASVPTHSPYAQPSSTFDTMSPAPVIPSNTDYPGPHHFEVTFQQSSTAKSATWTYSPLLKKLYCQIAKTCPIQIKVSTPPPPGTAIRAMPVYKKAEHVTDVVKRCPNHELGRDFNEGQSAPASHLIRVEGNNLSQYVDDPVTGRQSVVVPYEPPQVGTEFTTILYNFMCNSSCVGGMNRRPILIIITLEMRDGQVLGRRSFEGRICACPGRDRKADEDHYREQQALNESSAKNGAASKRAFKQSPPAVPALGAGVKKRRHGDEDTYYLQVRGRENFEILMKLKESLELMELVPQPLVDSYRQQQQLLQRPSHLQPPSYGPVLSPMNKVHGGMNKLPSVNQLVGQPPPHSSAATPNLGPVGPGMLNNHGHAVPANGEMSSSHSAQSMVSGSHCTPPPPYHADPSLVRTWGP
Experimental: as §1, §2

p53 = assay: Luciferase reporter assay, p53-dependent transcriptional activation in H1299 cells; assay type: cell-based, human; conditions: H1299, coexpression with p53 (FIG. 22)
Experimental: H1299 cells deficient in p53 were seeded at a density of 5×10^4 cells/well onto a 12-well tissue culture dish and transiently transfected with 100 ng of luciferase reporter construct (which carried a p53/p73-responsive element derived from a p21^WAF1, Bax, or MDM2 promoter), 10 ng of pRL-TK Renilla luciferase cDNA, and 25 ng of given expression plasmid (p53, HA-p73α, or HA-p73β) together with or without varying amounts of IKK-α or FLAG-IKK-β expression plasmids. The total amount of DNA per transfection was kept constant (510 ng) with a pcDNA3 empty plasmid. After 48 hours from the transfection, the cells were washed twice with ice-cold PBS and suspended in passive lysis buffer (Promega). Both firefly and Renilla luciferase activities were assayed by use of dual-luciferase reporter assay system (Promega) according to the instruction. […] intensity was measured with TD-20 luminometer (Turner Design). The firefly luciferase signal was normalized based on the Renilla luciferase signal. Results obtained from at least 3 transfections were indicated by mean value±standard deviation.
To explore the functional implication of interaction between IKK-α and p73, the effect of IKK-α on p73-mediated transcriptional activation was first examined. […]

B1: IKK-α: IKK-α protein, amino acid sequence SEQ ID NO: 24, expressed from plasmid; apoptosis enhancer (protein, listed as Homo sapiens)
chain: MERPPGLRPGAGGPWEMRERLGTGGFGNVCLYQHRELDLKIAIKSCRLELSTKNRERWCHEIQIMKKLNHANVVKACDVPEELNILIHDVPLLAMEYCSGGDLRKLLNKPENCCGLKESQILSLLSDIGSGIRYLHENKIIHRDLKPENIVLQDVGGKIIHKIIDLGYAKDVDQGSLCTSFVGTLQYLAPELFENKPYTATVDYWSFGTMVFECIAGYRPFLHHLQPFTWHEKIKKKDPKCIFACEEMSGEVRFSSHLPQPNSLCSLIVEPMENWLQLMLNWDPQQRGGPVDLTLKQPRCFVLMDHILNLKIVHILNMTSAKIISFLLPPDESLHSLQSRIERETGINTGSQELLSETGISLDPRKPASQCVLDGVRGCDSYMVYLFDKSKTVYEGPFASRSLSDCVNYIVQDSKIQLPIIQLRKVWAEAVHYVSGLKEDYSRLFQGQRAAMLSLLRYNANLTKMKNTLISASQQLKAKLEFFHKSIQLDLERYSEQMTYGISSEKMLKAWKEMEEKAIHYAEVGVIGYLEDQIMSLHAEIMELQKSPYGRRQGDLMESLEQRAIDLYKQLKHRPSDHSYSDSTEMVKIIVHTVQSQDRVLKELFGHLSKLLGCKQKIIDLLPKVEVALSNIKEADNTVMFMQGKRQKEIWHLLKIACTQSSARSLVGSSLEGAVTPQTSAWLPPTSAEHDHSLSCVVTPQDGETSAQMIEENLNCLGHLSTIIHEANEEQGNSMMNLDWSWLTE
What does the source list for B1?
complex formation with HA-p73α (p73 [1]): formed stable complexes; co-immunoprecipitation with HA-p73β (p73 [2]): co-immunoprecipitated; p53-responsive reporter gene activity (p53): not induced

— patent US7618787B2, “Method of screening compound capable of accelerating or inhibiting apoptosis, apoptosis accelarator and apoptosis inhibitor” (Hisamitsu Pharmaceutical Co., Inc., priority 2004, dated 2009)
